From the DeepSol protein solubility set

test: soluble on expression in E. coli; label from the status in PepcDB or PDB records

Sequence	soluble on expression in E. coli
MNITKIISKTFDSRLKQIDLYASQASEIQHRVLSRLVNQAAQTEWGKKYDYASIRSYEDFRNRLPIQTYEEIKPYVERLRAGEQNLLWPSEIRWFAKSSGTTNDKSKFLPVSKEALEDIHYRGGKDAAALYFRINPDSHFFSGKGLILGGSHSPNLNSNHSLVGDLSAILIQNVNPLINFIRVPSKKIALMSEWETKIEAIANSTIPVNVTSLSGVPSWMLVLIKRILEKTGKQTLEEVWPNLEVFFHGGVAFTPYREQYKQVIHSKMMHYVETYNASEGYFGTQNDLSDPAMLLMIDYGIFYEFVPLEEVDKENPRAYCLEEVELNKNYAMVISTSCGLWRYMIGDTVKFTNKNPYKFVITGRTKHFINAFGEELIVDNAEKGLAKACAETGAQVCEYSAAPVFMDEHAKCRHQWLIEFAKMPDSVEKFAAILDATLKEVNSDYEAKRWKDIALQPLEVIVARPGLFHDWLARKGKLGGQHKVPRLSNTREYIESMLVLNNELEHHHHHH	not soluble
MQNAEKLDFKITGGWIIDGTGAPRRRADLGVRDGRIAAIGELGAHPARHAWDASGKIVAPGFIDVHGHDDLMFVEKPDLRWKTSQGITTVVVGNCGVSAAPAPLPGNTAAALALLGETPLFADVPAYFAALDAQRPMINVAALVGHANLRLAAMRDPQAAPTAAEQQAMQDMLQAALEAGAVGFSTGLAYQPGAVAQAAELEGLARVAAERRRLHTSHIRNEADGVEAAVEEVLAIGRGTGCATVVSHHKCMMPQNWGRSRATLANIDRAREQGVEVALDIYPYPGSSTILIPERAETIDDIRITWSTPHPECSGEYLADIAARWGCDKTTAARRLAPAGAIYFAMDEDEVKRIFQHPCCMVGSDGLPNDARPHPRLWGSFTRVLGRYVREARLMTLEQAVARMTALPARVFGFAERGVLQPGAWADVVVFDPDTVADRATWDEPTLASVGIAGVLVNGAEVFPQPPADGRPGQVLRAGA	soluble
MGHHHHHHSHMKESAHLAISWLRSNAKKYQLTNAFGSFDLLDNTDIHLHFPAGAVTKDGPSAGVTIVTCLASLFSGRLVRSDVAMTGEITLRGLVLPVGGIKDKVLAAHRAGLKQVIIPRRNEKDLEGIPGNVRQDLSFVTASCLDEVLNAAFDGGFTVKTRPGLLNSKL	not soluble
MSLSDTTKTASTRTSVTDQEALDFHAQGRPGKLEITPTKPMATQRDLSLAYSPGVAVPVKAIAENPATAYDYTTRGNMVAVISNGTAILGLGNLGALASKPVMEGKSVLFKRFADVDSIDLEVDTEDADEFINCVRYLGPSFGGINLEDIKAPECFIIESRLRELMDIPVFHDDQHGTAIIAAAGLINAIELTGRDFKTTKLVCNGAGAAAIACMDLIKAMGFNPENITLCDTKGVIYQGRTEGMNQWKSAHAVKTDRRTLTEAMNGADVVFGLSQKGAFTEEMIRSMAPKPIIFAMANPDPEITPEEVSRIRDDAIMATGRSDYPNQVNNVLGFPYIFRGALDVRARQINDAMKIAAAQALADLAREDVPDDVAAAYQGNRPRFGSQYIIPVPFDPRLISAIPVAVAKAAIETGVAQREIPDLDAYARELSARRDPMASTTQRLYERVRRSPKRVVFAEAEEEQVMRAAISFTAQGLGTAILLGRDDIIKANAERAGIDLDRANIEITNARLSSRVDAYVDYLYARLQRGGFLLRDVQRLIHNDRNHFAACMVAMGDADAVVTGVTRNYSTALEDIRRCINTKPGHRVIGVSLVVSRNRTVFVADTAVHDMPNAEDLADIAEEAAHLARRFGYEPRVAMLAYSTFGQPVGERSDKVREAVKILDKRNVNFEVDGEMSADVALNHQRMQSQYPFARLSGAANVLVMPAIHSASISTKMLQELGGATVIGPLLVGLDKSVQITSMGAKDSDIVNMAAIAAYNAGREGHHHHHH	not soluble
MSHLKDPTTQYYTGEYPKQKQPTPGIQAKMTPVPDCGEKTYVGSGRLKDRKALVTGGDSGIGRAAAIAYAREGADVAISYLPVEEEDAQDVKKIIEECGRKAVLLPGDLSDEKFARSLVHEAHKALGGLDIMALVAGKQVAIPDIADLTSEQFQKTFAINVFALFWLTQEAIPLLPKGASIITTSSIQAYQPSPHLLDYAATKAAILNYSRGLAKQVAEKGIRVNIVAPGPIWTALQISGGQTQDKIPQFGQQTPMKRAGQPAELAPVYVYLASQESSYVTAEVHGVCGGEHLG	soluble
GKRLYNVKQSALSIRQIDLQRRHIEQSIRMGIKNQNDRLRTCMQRFVASEEAVRSAEKGYQIAEKRYQTGEGTLVELNDADVALLQARLNYNQAIFDFMTAKAELDKMNGMGIPEQ	not soluble
NATLKGLKLSERSTTEIQLLAEQAITVSKQEVKEFTYKVESNKQFEATVKIKADLKIDPTKAMSHIENIFKDDETKKKDAQNSLTMSMGQNEALEATFTYSPATQGIFGRASFDRFTSNIKLNTKLRIQVSSTSDLMKKLLENSLTSSLKDQSFDNEGVNLFPYTLFAL	not soluble
IGDLSYSVSGNIATNNNEIVTLAGSDNMIQNGGDVVRYILKEGEAIGSYYGLETDGLYTQEEIDAGHYYKYGRKPNAGDIKYVPQRENVEWGDDITDDDRTIIGKDVPDFTYGININLQWKNFELSAFGQGVSGTSVAFESEQVFAFMLNSNPRKYHLSRWNEDNPNPNAACPRLYGGNYYDEYNKHFSDYQLFDADYFRIKTISLGYMVPKDAVTRWGLSSLKFFLTGENLFTFRADKDMKDFDPESSTGRGISAFGAKSVAFGVNVSF	not soluble
GPGSMRSLVVHLLSYTQRFASAKPTILYVPQKTLIAEQVMEDEFKLSHTFPSLRIASLDLDYVFLEEKFFTMTLPLSFKSVFADGDLSNLTWIARLLLKLQTARFGAIRHIRGKGSNAAKVIQLLQRMQNNISHDFITDIPSEVETLIIIDRSVDFVTPLMTQLTYEGLIDELYDIENCEVQFPFSLGESSGVGASEKVVLNSTDRMFAEIRDRSFTGVGSVLYQKSIWVKQNYDKRKEVQQLKELKEFMKGLPEMQEMHRLIGIHTNVATEISKTTQRTDFRKRIMFEHNIIQQTNEGDVLRYIEDLVFRKEKFEVVLRLLALLSLVNSGLREKDLLGLKENMMLVYGIPHVITAFFMLERCGLLCAQSGKGSSYSTIRKQLRTWNSSVPEGQPNDIAYAYGGYAPPFVRMVDTLLRNPQAWDAEDDAPSLLPGEKKELMNDVEIAGTTKTAIVFVIGGITASEVSALRFVEERLSSGGRPHRIFIGTTDIISGNRMIRSLLPFEPAR	not soluble
MIKTFKSKALAELYETGSSSKTDKKLFKRIIVRLDRLNVAEKPEEMNLPGFNFHALIGFHPIRYTVHINGPWCITFEFDSCNAYRVDLEQYH	not soluble
KREHAKQHGMIRTEITGAEIAEEMEKERRLFQLQMCEYLIKVNEIKTKKGVDLLQNLIKYYHAQCNFFQDGLKTADKLKQYIEKLAADLYNIKQTQDEEKKQLTALRDLIKSSLQLDQKESRRDSQSRQGGYSMHQLQGNKEYGSEKKGYLLKKSDGIRKVWQRRKCSVKNGILTISHATSNRQPAKLNLLTCQVKPNAEDKKSFDLISHNRTYHFQAEDEQDYVAWISVLTNSKEEALTMAFRGEQSAGENSLEDLTKAIIEDVQRLPGNDICCDCGSSEPTWLSTNLGILTCIECSGIHREMGVHISRIQSLELDKLGTSELLLAKNVGNNSFNDIMEANLPSPSPKPTPSSDMTVRKEYITAKYVDHRFSRKTCSTSSAKLNELLEAIKSRDLLALIQVYAEGVELMEPLLEPGQELGETALHLAVRTADQTSLHLVDFLVQNCGNLDKQTALGNTVLHYCSMYSKPECLKLLLRSKPTVDIVNQAGETALDIAKRLKATQCEDLLSQAKSGKFNPHVHVEYEWNLRQEEIDESDDDLDDKPSPIKKERSPRPQSFCHSSSISPQDKLALPGFSTPRDKQRLSYGAFTNQIFVSTSTDSPTSPTTEAPPLPPRNAGKGPTGPPSTLPLSTQTSSGSSTLSKKRPPPPPPGHKRTLSDPPSPLPHGPPNKGAVPWGNDGGPSSSSKTTNKFEGLSQQSSTSSAKTALGPRVLPKLPQKVALRKTDHLSLDKATIPPEIFQKSSQLAELPQKPPPGDLPPKPTELAPKPQIGDLPPKPGELPPKPQLGDLPPKPQLSDLPPKPQMKDLPPKPQLGDLLAKSQTGDVSPKAQQPSEVTLKSHPLDLSPNVQSRDAIQKQASEDSNDLTPTLPETPVPLPRKINTGKNKVRRVKTIYDCQADNDDELTFIEGEVIIVTGEEDQEWWIGHIEGQPERKGVFPVSFVHILSD	soluble
MGSSHHHHHHSSGLVPRGSHMKAMNKVWVIGDASVDLVPEKQNSYLKCPGGASANVGVCVARLGGECGFIGCLGDDDAGRFLRQVFQDNGVDVTFLRLDADLTSAVLIVNLTADGERSFTYLVHPGADTYVSPQDLPPFRQYEWFYFSSIGLTDRPAREACLEGARRMREAGGYVLFDVNLRSKMWGNTDEIPELIARSAALASICKVSADELCQLSGASHWQDARYYLRDLGCDTTIISLGADGALLITAEGEFHFPAPRVDVVDTTGAGDAFVGGLLFTLSRANCWDHALLAEAISNANACGAMAVTAKGAMTALPFPDQLNTFLSSHSLAQAMTVK	soluble
MKEKIPFYNEKEFHDMVKKTKKGTFSGWYIINKNNNSVEFSGSFNRQFKLNKPVIPVNTEYVTRKEFNEYKDSNDQRLTKIETELKSQGQRIQVVEDKVDRLTEVVMVQSQQIKTQGEAMNARMDRFESLVLKSLESIGNTLTDFGKRLDVIETRLDKIDPPK	soluble
MSLKKEVVVIGGGIVGLSCAYSMHKLGHKVCVIEKNDGANGTSFGNAGLISAFKKAPLSCPGVVLDTLKLMLKNQAPLKFHFGLNLKLYQWILKFVKSANAKSTHRTMALFERYGWLSIDMYHQMLKDGMDFWYKEDGLLMIYTLEESFEKKLKTCDNSGAYKILSAKETKEYMPVVNDNICGSVLLTENAHVDPGEVMHSLQEYLQNVGVEFLYNEEVIDFEFKNNLIEGVITHKEKIQAETIILATGANPTLIKKTKNDFLMMGAKGYSITFKMPEELKPKTSSLFADIFMAMTPRRDTVRITSKLELNTNNALIDKEQIANMKKNLAAFTQPFEMKDAIEWCGFRPLTPNDIPYLGYDKRYKNLIHATGLGWLGITFGPAIGKIIANLSQDGANEKNADIMLFSAFFRDEGHHHHHH	not soluble
MGSDKIHHHHHHMTTRQPKTEADVLAETANLILDKYFHNQKNICTYDKIELARMLGLAEDNKKSDYALFHFIKALRYVVLGNFNEAINSYEATLRIPNSHAGILSNYATTLIILGELEQAKEMLIKCLNETDDGVSNLEYFANIIELYLLSTLDETLLQHAGNMKDSTLDKYSNILKLKTDINKIDISIQDYQEFTGVLIKFIFDKTRQIYQPRFSIDNGLDRQLNIEAFLNINPEEASYLNTEFRNQYLDYIFDNERHDLLGKFVVFFRQNKNREDGTEKPKAFYLGTNRELEA	not soluble
MAHHHHHHMGGDVTFSLTKTRDTFADWFDAIMDAAELVDRRYPVKGCVVFRPYGFFMENAIMRLCEEEYAKVGISQILFPTVIPESFLKKESDHIKGFEAECFWVEKGGLQPLEERLALRPTSETAIYSMFSKWVRSYKDLPLKIHQTCTIFRHETKNTKPLIRVREIHWNEAHCCHATAEDAVSQLSDYWKVIDTIFSDELCFKGQKLRRVCWDRFPGADYSEVSDVVMPCGRVLQTAGIHNLGQRFSSTFDILYANKANESVHPYLTCAGISTRVLACALSIHGDSGGLVLPPLIAPIHVVIIPIGCGKKNNQESDQQVLGKVNEIADTLKSKLGLRVSIDDDFSKSMGDKLYYYELKGVPLRIEVGQRDLANGQCIVVPRDVGKDQKRVIPITEVMKVSSHTTENHELVVKNVIKDELDAYKARLKEKAFAFHNSMVTNCKSFDEIVACIENKGGLARFPFYTTEADGEVWDKKLKDACSAEIRGHNPDENVLPGEVCALSGKPAVCYMYCAKSY	soluble
